Read-outs that look alike come from different tables or passages of the source.
Assays:
[1] = biological target: 16055-ConM-v8.1ds SOSIP trimer (HIV-1); assay: flow cytometry, primary murine B cells edited in the HCDR3, labeled 16055-ConM-v8.1ds SOSIP against surface IgM
[2] = biological target: ConM SOSIP protein (v8.1ds) modified with the BG505 V1V2 region (HIV-1); assay: flow cytometry, VRC26.25 HCDR3-edited primary murine B cells, labeled SOSIP against surface IgM
ConM-v7 = assay: as above
[3] = biological target: ConM SOSIP protein (v8.1ds) modified with the CRF250 V1V2 region (HIV-1); assay: as above
ConM-v7ds = assay: as above
ConM-v8.1ds [4] = assay: as above
CRFConM-v8.1ds (GnTI-) = assay: as above
CRF250ConM-v7ds = assay: as above
CRF250ConM-v7ds (GnTI-) = assay: as above
BG505ConM-v8.1ds (GnTI-) = assay: as above
ConM-v7ds (GnTI-) = assay: as above
BG505ConM-v7ds = assay: as above
ConM-v8.1(GnTI-) = assay: as above
BG505ConM-v8.1 = assay: as above
BG505ConM-v8.1 (GnTI-) = assay: as above
ConM-8.1ds (GnTI-) = assay: as above
BG505ConM-v7ds (GnTI-) = assay: as above
ConM-v7 (GnTI-) = assay: as above
CRF250ConM-v8.1 (GnTI-) = assay: as above
SOSIP [5] = assay: flow cytometry of murine B cells edited with the VRC26.25 HCDR3, APC-labeled SOSIP trimer against anti-IgM; activation High dose LPS
SOSIP [6] = assay: flow cytometry of murine B cells edited with the VRC26.25 HCDR3, APC-labeled SOSIP trimer against anti-IgM; activation Anti-CD180
SOSIP [7] = assay: flow cytometry of murine B cells edited with the VRC26.25 HCDR3, APC-labeled SOSIP trimer against anti-IgM; activation Low dose LPS + IL4
[8] = biological target: ConM SOSIP protein (v8.1ds) modified with the BG505 V1V2 region (HIV-1); assay: flow cytometry, VRC26.25 HCDR3-edited primary murine B cells, labeled SOSIP against surface IgM; remark: listed apart in the source
[9] = biological target: ConM SOSIP protein (v8.1ds) modified with the CRF250 V1V2 region (HIV-1); assay: as above; remark: listed apart in the source
ConM-v8.1ds [10] = assay: as above; remark: listed apart in the source
[11] = biological target: 16055-ConM-v8.1ds SOSIP trimer (HIV-1); assay: as above

Substance: B-cell receptors of primary murine B cells edited to express the VRC26.25 HCDR3 (antibody)
- % of cells in the SOSIP gate [1]: 4.54%
- % of cells in the SOSIP gate [2]: 5.87%
- % of cells in the SOSIP gate (ConM-v7): 5.57%
- % of cells in the SOSIP gate [3]: 6.6%
- % of cells in the SOSIP gate (ConM-v7ds): 5.51%
- % of cells in the SOSIP gate (ConM-v8.1ds [4]): 6.58%
- % of cells in the SOSIP gate (CRFConM-v8.1ds (GnTI-)): 7.8%
- % of cells in the SOSIP gate (CRF250ConM-v7ds): 5.46%
- % of cells in the SOSIP gate (CRF250ConM-v7ds (GnTI-)): 6.33%
- % of cells in the SOSIP gate (BG505ConM-v8.1ds (GnTI-)): 6.39%
- % of cells in the SOSIP gate (ConM-v7ds (GnTI-)): 4.48%
- % of cells in the SOSIP gate (BG505ConM-v7ds): 5.08%
- % of cells in the SOSIP gate (ConM-v8.1(GnTI-)): 6.89%
- % of cells in the SOSIP gate (BG505ConM-v8.1): 5.19%
- % of cells in the SOSIP gate (BG505ConM-v8.1 (GnTI-)): 7.41%
- % of cells in the SOSIP gate (ConM-8.1ds (GnTI-)): 7.68%
- % of cells in the SOSIP gate (BG505ConM-v7ds (GnTI-)): 4.61%
- % of cells in the SOSIP gate (ConM-v7 (GnTI-)): 7.31%
- % of cells in the SOSIP gate (CRF250ConM-v8.1 (GnTI-)): 5.16%
- % of cells above the SOSIP gate line (SOSIP [5]): 3.41%
- % of cells above the SOSIP gate line (SOSIP [6]): 4.47%
- % of cells above the SOSIP gate line (SOSIP [7]): 4.62%
- % of cells in the SOSIP gate [8]: 3.59%
- % of cells in the SOSIP gate [9]: 3.22%
- % of cells in the SOSIP gate (ConM-v8.1ds [10]): 3.62%
- % of cells in the SOSIP gate [11]: 3.83%

Source: patent publication US20260117259A1
